# Laboratory results from patent US6921641.
# B1: Bacillus caldotenax (Bca) UvrA protein (protein)
# chain: MDKIVVKGARAHNLKNIDVEIPRGKLVVLTGLSGSGKSSLAFDTIYAEGQRRYVESLSAYARQFLGQMEKPDVDAIEGLSPAISIDQKTTSRNPRSTVGTVTEIYDYLRLLFARIGRPVCPTHGIEIQSQTIEQMVDRLLAYPERTKMQILAPIVSGKKGTHAKTLEDIRKQGYVRVRIDGEMRELTEDIELEKNKKHSIDVVVDRIIIKDGIAARLADSLETALKLADGKVVVDVIGEGELLFSEKHACPYCGFSIGELEPRLFSFNSPFGACPDCDGLGAKLEVDLDLVIPNDELTLKEHAIAPWEPQSSQYYPQLLEAVCRHYGIPMDVPVRDLPKEQLDKILYGSGGEPIYFRYTNDFGQVREQYIAFEGVIPNVERRYRETSSDYIREQMEKYMAEQPCPTCQGYRLKKESLAVLVGGKHIGEVTAMSVTEALAFFDGLELTEKEAQIARLILREIRDRLGFLQNVGLDYLTLSRSAGTLSGGEAQRIRLATQIGSRLTGVLYVLDEPSIGLHQRDNDRLIATLKSMRDLGNTLIVVEHDEDTMLAADYLIDIGPGAGIHGGEVISAGTPEEVMEDPNSLTGSYLSGKKFIPLPPERRKPDGRYIEIKGAREHNLKNVSVKIPLGTFVAVTGVSGSGKSTLVNEVLYKALAQKLHRAKAKPGEHRDIRGLEHLDKVIDIDQSPIGRTPRSNPATYTGVFDDIRDVFASTNEAKVRGYKKGRFSFNVKGGRCEACHGDGIIKIEMHFLPDVYVPCEVCHGKRYNRETLEVTYKGKNIAEVLDMTVEDALDFFASIPKIKRKLETLYDVGLGYMKLGQPATTLSGGEAQRVKLAAELHRRSNGRTLYILDEPTTGLHVDDIARLLDVLHRLVDNGDTVLVIEHNLDVIKTADYIIDLGPEGGDRGGQIVAVGTPEEVAEVEESHTGRYLNPILERDRARMQAQYEAVKA
# B2: Bacillus caldotenax (Bca) UvrB protein, wild type (protein)
# chain: VEGRFQLVAPYEPQGDQPQAIAKLVDGLRRGVKHQTLLGATGTGKTFTISNVIAQVNKPTLVIAHNKTLAGQLYSELKEFFPHNAVEYFVSYYDYYQPEAYVPQTDTYIEKDAKINDEIDKLRHSATSALFERRDVIIVASVSCIYGLGSPEEYRELVVSLRVGMEIERNALLRRLVDIQYDRNDIDFRRGTFRVRGDVVEIFPASRDEHCIRVEFFGDEIERIREVDALTGEVLGEREHVAIFPASHFVTREEKMRLAIQNIEQELEERLAELRAQGKLLEAQRLEQRTRYDLEMMREMGFCSGIENYSRHLALRPPGSTPYTLLDYFPDDFLIIVDESHVTLPQLRGMYNGDRARKQVLVDHGFRLPSALDNRPLTFEEFEQKINQIIYVSATPGPYELEHSPGVVEQIIRPTGLLDPTIDVRPTKGQIDDLIGEIRERVERNERTLVTTLTKKMAEDLTDYLKEAGIKVAYLHSEIKTLERIEIIRDLRLGKYDVLVGINLLREGLDIPEVSLVAILDADKEGFLRSERSLIQTIGRAARNANGHVIMYADTITKSMEIAIQETKRRRAIQEEYNRKHGIVPRTVKKEIRDVIRATYAAEETEMYEAKPAAAMTKQEREELIRTLEAEMKEAAKALDFERAAQLRDIIFELKAEG
# B3: β-hairpin deletion mutant of the B. caldotenax UvrB protein (Δβh UvrB) (protein)
# chain: VEGRFQLVAPYEPQGDQPQAIAKLVDGLRRGVKHQTLLGATGTGKTFTISNVIAQVNKPTLVIAHNKTLAGQLYSELKEFFPHNAVEYFVSYYDYYGAKINDEIDKLRHSATSALFERRDVIIVASVSCIYGLGSPEEYRELVVSLRVGMEIERNALLRRLVDIQYDRNDIDFRRGTFRVRGDVVEIFPASRDEHCIRVEFFGDEIERIREVDALTGEVLGEREHVAIFPASHFVTREEKMRLAIQNIEQELEERLAELRAQGKLLEAQRLEQRTRYDLEMMREMGFCSGIENYSRHLALRPPGSTPYTLLDYFPDDFLIIVDESHVTLPQLRGMYNGDRARKQVLVDHGFRLPSALDNRPLTFEEFEQKINQIIYVSATPGPYELEHSPGVVEQIIRPTGLLDPTIDVRPTKGQIDDLIGEIRERVERNERTLVTTLTKKMAEDLTDYLKEAGIKVAYLHSEIKTLERIEIIRDLRLGKYDVLVGINLLREGLDIPEVSLVAILDADKEGFLRSERSLIQTIGRAARNANGHVIMYADTITKSMEIAIQETKRRRAIQEEYNRKHGIVPRTVKKEIRDVIRATYAAEETEMYEAKPAAAMTKQEREELIRTLEAEMKEAAKALDFERAAQLRDIIFELKAEG
# Columns and labels:
# [1] = molecular target: T1, Escherichia coli UvrB protein
# T1 chain: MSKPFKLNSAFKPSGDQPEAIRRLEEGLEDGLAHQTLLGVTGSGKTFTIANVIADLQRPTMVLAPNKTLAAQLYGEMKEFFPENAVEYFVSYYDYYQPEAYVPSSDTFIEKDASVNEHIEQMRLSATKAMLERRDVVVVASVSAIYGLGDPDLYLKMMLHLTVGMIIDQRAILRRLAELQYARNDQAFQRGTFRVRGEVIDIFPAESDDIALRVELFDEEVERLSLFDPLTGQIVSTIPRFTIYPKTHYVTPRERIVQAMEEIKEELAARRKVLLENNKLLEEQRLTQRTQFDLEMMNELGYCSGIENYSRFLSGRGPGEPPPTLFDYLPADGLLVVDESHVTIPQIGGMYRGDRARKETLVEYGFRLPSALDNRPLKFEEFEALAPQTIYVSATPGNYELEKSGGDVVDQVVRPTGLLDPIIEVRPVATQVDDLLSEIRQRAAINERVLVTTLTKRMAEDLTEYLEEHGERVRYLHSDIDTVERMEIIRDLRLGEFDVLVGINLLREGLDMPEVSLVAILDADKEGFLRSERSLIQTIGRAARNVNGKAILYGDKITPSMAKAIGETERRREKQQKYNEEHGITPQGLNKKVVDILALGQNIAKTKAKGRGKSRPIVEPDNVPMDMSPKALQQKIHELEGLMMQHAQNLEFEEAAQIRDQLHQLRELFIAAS
# [2] = molecular target: T2, Bacillus caldotenax (Bca) UvrA protein
# T2 chain: B1 chain
protein,measurement,setting,value
B1,"DNA substrate bound in the form of UvrB-DNA complex (gel mobility shift, Eco UvrB at 100 nM)",[1],more than 50% of the DNA substrate bound in the form of UvrB-DNA complex
same,"DNA substrate bound in the form of UvrB-DNA complex (gel mobility shift, Eco UvrB at 250 nM)",[1],all the BPDE-containing substrate is bound as the UvrB-DNA complex
B2,ATPase activity (UvrA + UvrB + UV-DNA) (mol of ATP hydrolyzed/mol of protein/min),[2],22
same,ATPase activity (UvrA + UvrB) (mol of ATP hydrolyzed/mol of protein/min),[2],18.3
B3,ATPase activity (UvrA + Δβh UvrB + UV-DNA) (mol of ATP hydrolyzed/mol of protein/min),[2],29
same,ATPase activity (UvrA + Δβh UvrB) (mol of ATP hydrolyzed/mol of protein/min),[2],19
